{"source": "the DeepSol protein solubility set"}
{"assay": "soluble on expression in E. coli; label from the status in PepcDB or PDB records"}
{"sequence": "MSDIKHEKKLANMDTPGETTKSFENKLDEEIPDIEESDFINSPPFSDEIFSPEDSKQVEISELSKQAYSLLKGNSITEAINVFKKILELDPTNNYALVGLGDAERKNNKFNEAIKFYKQCLEHHPSNNYALFGLADCYKSMNQFPRAIAIWEEYLKFDDKNITVLTRVADAYRKTKEFEKAEKLYQKVLEKSPKNAYALIGLGHLNYDFKKYREALVYWEKVMESSGELVDIRILTSIGNCYRKMKLFDRGVYYFERALERSPDNFYGLFGLADCYRGLNQQYNSIVYWKKILELDPNNKVILTRIGDAYRSMNDFEKAKESYQKALDIDFDSYAMLGLAILCKLQQKYDQAITTLTHLKDTGDTNYNYRVYLELAQCYIEKKEKQKAIETLIDFQKLGIKNQTVSDLLFELTKNDH", "soluble on expression in E. coli": "not soluble"}
{"sequence": "MSDLDTPTPSPHPVLLNLEQFLPYRLSVLSNRISGNIAKVYGDRYGMAIPEWRVITILALYPGSSASEVSDRTAMDKVAVSRAVARLLERGFIRRETHGDDRRRSMLALSPAGRQVYETVAPLVNEMEQRLMSVFSAEEQQTLERLIDRLAKDGLPRMASKD", "soluble on expression in E. coli": "soluble"}
{"sequence": "MSDLQKLQRFSTCDISDGLLNVYNIPTGGYFPNLTAISPPQNSSIVGTAYTVLFAPIDDPRPAVNYIDSVPPNSILVLALEPHLQSQFHPFIKITQAMYGGLMSTRAQYLKSNGTVVFGRIRDVDEHRTLNHPVFAYGVGSCAPKAVVKAVGTNVQLKILTSDGVTQTICPGDYIAGDNNGIVRIPVQETDISKLVTYIEKSIEVDLLVSEDIKNGIPAKQAQNDRRSVLKKYIHHHHHH", "soluble on expression in E. coli": "soluble"}
{"sequence": "MSDPRPARAVVVGIDGSRAATHAALWAVDEAVNRDIPLRLVYVIDPSQLSAAGEGGGQSAARAALHDASRKVEATGQPVKIETEVLCGRPLTKLMQESRSAAMLCVGSVGLDHVRGRRGSVAATLAGSALCPVAVIHPSPAEPATTSQVSAVVAEVDNGVVLRHAFEEARLRGVPLRAVAVHAAETPDDVEQGSRLAHVHLSRRLAHWTRLYPEVRVDRAIAGGSACRHLAANAKPGQLFVADSHSAHELCGAYQPGCAVLTVRSANL", "soluble on expression in E. coli": "not soluble"}
{"sequence": "MSDSNTPNPPGTEERLVQQLDSYFSNTATGNETGEASAPAAPNNAAGTSDQDRPPNLAPILMLSYLNHCMSKKSFTPEDIQKSVWEQKSKKLSQEDWEFCKYFISSKELLLQLAPGKKRKTQAQALIELILKKFPGVGVEMLTRLLDPSESAYIIYDVIEQVKCEPKCDAESIKQEEFMYSQKINKKIRENNKCFKFSMVFERLRNGSSLPEEKPFAPLEFRTITSEYSNIYTQMVKATTYVELMDVMSKLKTTRLSVNELYFSAKHMQNPEKDTQDEFWEAESEKVLELQPLMIDPQLESTSRQRLKILQELALQQKMLKEVDEIISMSFELVTKSLSTGNPHNPADVQSLMINSNAPSIPDQRKNDWMEYYNLNPLGQYPISSHFPRSDRIGPKLPAVIQKISIRYCLSKEIEVIETIDEWKCREFCTYDHNLKDFRRHKCEICEVEVQECDLSLRQTKWCSHIEDQVLLMYNRVNGRLEQYVFSFETKGFKEVYCSCIEVTYRGKNGPEEPVLLTNGSEHVVIKEADPGVVKLQLVGENHVEIPAVPVQQLSAEEIEMQDAYDSSKSESESEHESEQISYNKTFISTLPMFKVRHCPLSRKDVLYVRSNNLGQYEKYDYHPTYHRFEPFKCSKCKDATSEDHLVPKYAEHCPETNEFVIHTENLFTERMEQYIYDSMTQGFRQVYYPQFLYDPSKDHTSNVFVTVNYLSTVITRDKDGRFKKEKFCDNLKKFVAIPEVEVNTFTVQELEKKKNKRRVDSDSDSFEHIEIPDMVSASP", "soluble on expression in E. coli": "not soluble"}
{"sequence": "MSDSPDSPPDAEPSIAARIAAVLPSLTPIHRRMGEYVLANPFRAATMRIDELANAVDASIATANRFARALGFDGYPALRAALVRGFEATLAPVERLRSAQEHEAGARGGELIDASFEQAL", "soluble on expression in E. coli": "not soluble"}
{"sequence": "MSDSSQLHKVAQRANRMLNVLTEQVQLQKDELHANEFYQVYAKAALAKLPLLTRANVDYAVSEMEEKGYVFDKRPAGSSMKYAMSIQNIIDIYEHRGVPKYRDRYSEAYVIFISNLKGGVSKTVSTVSLAHAMRAHPHLLMEDLRILVIDLDPQSSATMFLSHKHSIGIVNATSAQAMLQNVSREELLEEFIVPSVVPGVDVMPASIDDAFIASDWRELCNEHLPGQNIHAVLKENVIDKLKSDYDFILVDSGPHLDAFLKNALASANILFTPLPPATVDFHSSLKYVARLPELVKLISDEGCECQLATNIGFMSKLSNKADHKYCHSLAKEVFGGDMLDVFLPRLDGFERCGESFDTVISANPATYVGSADALKNARIAAEDFAKAVFDRIEFIRSN", "soluble on expression in E. coli": "soluble"}
{"sequence": "MSDVIEQYFVKNEPYYRPVADEVKLYEAAYSVRMPMMLKGPTGCGKTRFVEYMAWKLGKPLITVACNEDMTASDLVGRFLLDAQGTRWQDGPLTTAARYGAICYLDEVVEARQDTTVVIHPLTDNRRVLPLEKKGELVGAHPDFQLVISYNPGYQSLMKDLKQSTKQRFGALDFNYPQHDIETEIVSHETGIDSAIADKLVSIAERARNLKGHGLDEGISTRMLIYAGNLIAKGVDVHAACRMALVRPITDDPDMRDALDAAVTTFFLEHHHHHH", "soluble on expression in E. coli": "soluble"}
{"sequence": "MSDWTYSEGALDEAHWPQHYPACGGQRQSPINLQRTKVRYNPSLKGLNMTGYETQAGEFPMVNNGHTVQISLPSTMRMTVADGTVYIAQQMHFHWGGASSEISGSEHTVDGIRHVIEIHIVHYNSKYKSYDIAQDAPDGLAVLAAFVEVKNYPENTYYSNFISHLANIKYPGQRTTLTGLDVQDMLPRNLQHYYTYHGSLTTPPCTENVHWFVLADFVKLSRTQVWKLENSLLDHRNKTIHNDYRRTQPLNHRVVESNFPNQEYTLGSEFQAENLYFQ", "soluble on expression in E. coli": "soluble"}
{"sequence": "MSDYAESYVSDCEVDPEELKNQSLFDKPRGVPRWLGKPHNSVKERLHNSVKDRTFIQKTVSSSEPLSRNAMDRIEASLTDNLNLDVVYSLNKKNRWQDAKTTFLLAGAPENVNAEVVEKNGLAQFGFIYPEKSTFAVHSRVLNKENKQGEFEIRSAITSSARGQDYSNFLPNTREFSKKANAKVMTLRSEEVDEDSKRQPTVSYNIYKTHRSQDVVGKEMFKAKVVSKSRRHRQNKKVDMENYDDLDEEFEDDEDEVVDSHRPTGVFDLAAFKVRTQSKQAHPKNRKDSELSYDMVDYDELETGSEYSQQFNVQEYLNQEGYTFIQADVTFVKLTEPFEDQINQLRLEGDLRVKDLQKNQYLIDISKRCQPNGTTQDGETTAVIVLTHLKHKTYNMIFNSTIGADPIRRNGENLRKIVSSAPTVLEVITKISGDVAEDKQLISRIKTSEKFYGRPSTSVDWNDLSLQRATCPNQYDNATWANSEELSVVGGKLEWDDLVAMVKKENNLVTCYSSDDFCGFCNRKKKSFELFLIKSSSETKIKCTECLRNEFYREFIARRLPIDLQTETADEMEYLPIFIPLTLLNLYIRTVAETIYKDLGATGDFEKCPSCKSTIFFEEPGNENKTQNRSCPCGYSWCRDCKGVPHWPMNCENYAEWEKKWHLRYAMMNAQGTGTVTLLQFTCHCKTVYYCLLPTKRVNCPGCRESVNLETMNTMYRQFYYSYPPRYRKWEKQYHEENKDTDRHPYQPLAKVCWEIDKIPAIKASVIETCGAARDVRFDLKFRNRVIKQEQVLIKKSILTSEVLENILGTIPYLVENVTAWMHMSNHQDKNLKSILESMIADRKDLVYYLESENEIEIEKCVKILRAKIDSVVSIVEKNMKNC", "soluble on expression in E. coli": "not soluble"}
{"sequence": "MSEAIGLIETVGLVAAIEAADAAVKAANVKLIGYELARGSGLTTVKIKGDVGAVKAAVEAGKAAALRVGKVYAVHIIPRPDKQVGFIVGEEKNLTLLMPVIEKEEKEKNDSEPKIKVTEGETIEKREIEQKFEKEDKSEAKEETGEVEEEDDKEGMAYTCNLCKDPGCPRKKGEPRTLCIHYNELKMR", "soluble on expression in E. coli": "not soluble"}
{"sequence": "MSEELLQKFLTSIEQEDGIAEIGKKKKNKSAARRDNVKTILHAASKGQVQLSAEESYIVQKPSTSKGSDYIDDRLASQGFSLIDQARSFKPKDLKKRNLKYMKFQEGRRIDKKKGRILVQAHMQTKQDLKSLRKEKKAIIGVKEPRRLLPGQKKKQKDKSVFSDADFAQVAHVAKRINSMADHSFL", "soluble on expression in E. coli": "not soluble"}
